Consider 13 molecules from patent publication US20240400675A1 (published 2024).

Substitutions are numbered along the chain they refer to. Like-named read-outs stand apart in the source and are kept apart here.

Experiment in all cases: HEK293E cell binding; avid
Assay [1] concerns the target T1, human CLDN9 (UniProt O95484 1-217).
T1 chain: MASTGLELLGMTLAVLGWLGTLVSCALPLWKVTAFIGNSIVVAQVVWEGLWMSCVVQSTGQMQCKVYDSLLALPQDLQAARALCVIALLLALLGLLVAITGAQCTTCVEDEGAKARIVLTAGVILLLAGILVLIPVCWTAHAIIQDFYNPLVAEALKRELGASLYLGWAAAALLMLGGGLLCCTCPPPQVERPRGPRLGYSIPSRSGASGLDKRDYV

For assay [2], the target named is T2, human CLDN6 (UniProt P56747 1-220).
T2 chain: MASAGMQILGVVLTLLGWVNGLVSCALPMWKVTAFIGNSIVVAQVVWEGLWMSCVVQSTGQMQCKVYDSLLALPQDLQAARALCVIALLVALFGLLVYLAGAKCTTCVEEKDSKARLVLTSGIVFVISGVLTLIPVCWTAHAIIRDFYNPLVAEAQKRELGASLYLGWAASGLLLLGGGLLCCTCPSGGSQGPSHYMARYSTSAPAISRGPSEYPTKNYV

For assay [3], the target named is T1, human CLDN9.
The target of assay [4] is T2, human CLDN6.

B1: XENP36041 H2.91_L1 (antibody, V domains shown)
VH: EVQLVQSGAEVKKPGESLRISCKTSGYTFTEYTMHWVRQMPGKSLEWMGGIDPNNFNTHYNQKFQGHVTISVDKSISTAYLQWSSLKASDTAMYYCARIYYFGRLYFDFWGAGTLVTVSS
VL: DIQMTQSPSSLSASVGDRVTITCQASEDIYNRLAWYQQKPGKVPKLLISGATSLETGVPSRFSGSGSGKDYTFTISSLQPEDIATYYCQQYWSSPLTFGGGTKVEIKR
The term EC50 denotes the concentration at which the effect is half-maximal. As for B1, the EC50 with human CLDN9 [1] worked out at 32.5 µg/mL; with human CLDN6 [2] it was 0.449 µg/mL.

B2: XENP36065 H2.118_L1 (antibody, V domains shown)
VH: B1 VH with F56G, F64K
VL: B1 VL
For B2, the concentration for a half-maximal effect (EC50) amounted to 492 µg/mL in the assay with human CLDN9 [1] and 0.783 µg/mL in the assay with human CLDN6 [2].

B3: XENP35890 H2.11_L1 (antibody, V domains shown)
VH: B1 VH with T28S, F56G
VL: B1 VL
For the molecule B3, the figures for the EC50 with human CLDN9 [1] and in the assay with human CLDN6 [2] were 34.1 µg/mL and 0.408 µg/mL, respectively.

B4: XENP36066 H2.119_L1 (antibody, V domains shown)
VH: B1 VH with F56G, Q65E
VL: B1 VL
As to B4, the figures for the concentration for a half-maximal effect (EC50) in the assay with human CLDN9 [1] and with human CLDN6 [2] were 18 µg/mL and 0.567 µg/mL, respectively.

B5: XENP35883 H1.19_L1 (antibody, V domains shown)
VH: QVQLVQSGAEVKKPGASVKVSCKTSGYTFTEYTMHWVRQAPGQSLEWMGGIDPNNGNTHYNQKFQGRVTITVDKSASTAYMELSSLRSEDTATYYCARIYYFGRLYFDFWGAGTLVTVSS
VL: B1 VL
In the case of B5, the EC50 turned out to be 16.8 µg/mL in the assay with human CLDN9 [1] and 0.617 µg/mL in the assay with human CLDN6 [2].

B6: XENP35050 H2_L1.7 (antibody, V domains shown)
VH: B1 VH with F56G
VL: B1 VL with N31S
Take B6: the EC50 in the assay with human CLDN9 [3] was determined as 99.3 µg/mL; with human CLDN6 [4], 2.22 µg/mL.

B7: XENP36022 H2.72_L1 (antibody, V domains shown)
VH: B1 VH with P53A, F56G
VL: B1 VL
For the molecule B7, the EC50 with human CLDN9 [1] was 47.2 µg/mL; in the assay with human CLDN6 [2], 0.514 µg/mL.

B8: XENP35929 H2_L1.107 (antibody, V domains shown)
VH: B1 VH with F56G
VL: B1 VL with S94A
As to B8, the concentration giving a half-maximal response (EC50) with human CLDN9 [1] stood at 99.1 µg/mL; in the assay with human CLDN6 [2], 0.792 µg/mL.

B9: XENP35936 H2_L1.114 (antibody, V domains shown)
VH: B1 VH with F56G
VL: B1 VL with S94G
In the case of B9, the 50% effective concentration (EC50) in the assay with human CLDN9 [1] turned out to be 57.4 µg/mL; with human CLDN6 [2], 0.829 µg/mL.

B10: XENP35979 H2_L1.187 (antibody, V domains shown)
VH: B1 VH with F56G
VL: B1 VL with Y30V
With B10, the 50% effective concentration (EC50) with human CLDN9 [1] is 29.2 µg/mL; with human CLDN6 [2], 0.323 µg/mL.

B11: XENP35059 H2_L1.16 (antibody, V domains shown)
VH: B1 VH with F56G
VL: B1 VL with G50A
Consider B11, for which the half-maximal effective concentration (EC50) in the assay with human CLDN9 [3] amounted to 32.7 µg/mL; with human CLDN6 [4] it was 1.28 µg/mL.

B12: XENP36025 H2.75_L1 (antibody, V domains shown)
VH: B1 VH with N54H, F56G
VL: B1 VL
B12: the half-maximal effective concentration (EC50) is 61.1 µg/mL with human CLDN9 [1] and 1.34 µg/mL with human CLDN6 [2].

B13: XENP36021 H2.71_L1 (antibody, V domains shown)
VH: B1 VH with P53L, F56G
VL: B1 VL
B13: the values for the 50% effective concentration (EC50) in the assay with human CLDN9 [1] and with human CLDN6 [2] were 49.3 µg/mL and 0.902 µg/mL, respectively.
